Laboratory results taken from doi:10.1101/2021.12.14.472599.
Where two headings read alike, the source gives them in different places.

Key:
[1] = biological target: TwinStrep-CcSir2 protein (TwinStrep-tag fused to the N-terminus of His6-CcSir2) (Caballeronia cordobensis); assay: co-elution from a Heparin column with SDS-PAGE densitometry
[2] = biological target: T1, GsSir2;GsAgo (Geobacter sulfurreducens Caccavo (ATCC …, UniProt Q74DF6;Q74DF5 1-587;1-473, |)); assay: EMSA
[3] = biological target: T1, GsSir2;GsAgo; assay: EMSA; remark: listed apart in the source
[4] = biological target: T2, GsSir2(D230A);GsAgo (Geobacter sulfurreducens Caccavo (ATCC …, UniProt Q74DF6;Q74DF5 1-587;1-473, D230A|)); assay: EMSA
[5] = biological target: T2, GsSir2(D230A);GsAgo; assay: EMSA; remark: listed apart in the source
[6] = biological target: T1, GsSir2;GsAgo; assay: EMSA; remark: listed apart in the source
[7] = biological target: GsSir2APAZ;GsAgo (Geobacter sulfurreducens Caccavo (ATCC …, UniProt Q74DF6;Q74DF5 1-587;1-473, R440E;R442E;R517E;R525E;R528E;R531E|)); assay: EMSA

Molecule	Kd [2] [pM]	Kd [3] [pM]	other results
CcAgo protein (short pAgo of the CcSir2/Ago system) (natural protein)			stoichiometry N [1]: 1 Sir2:Ago
ATAATGGTTTCTTAGACGTCGTTTTAGAGCTGTGTTGTTTCG (ssDNA) [ssDNA (TK-49)]	33 ± 16		
ATAATGGTTTCTTAGACGTCGTTTTAGAGCTGTGTTGTTTCG (ssDNA, circularised by CircLigase II) [circular ssDNA (TK-49)]	72 ± 18		
gDNA TK-49 + target ssRNA MZ-1185 (DNA:RNA, 5'-phosphate on guide) DNA: ATAATGGTTTCTTAGACGTCGTTTTAGAGCTGTGTTGTTTCG RNA: CGAAACAACACAGCUCUAAAACGACGUCUAAGAAACCAUUAU		252 ± 114	
gDNA TK-49 + target ssDNA MZ-949 (dsDNA, 5'-phosphate on guide) DNA 1: ATAATGGTTTCTTAGACGTCGTTTTAGAGCTGTGTTGTTTCG DNA 2: CGAAACAACACAGCTCTAAAACGACGTCTAAGAAACCATTAT		22 ± 5	
dsDNA (TK-49/MZ-949) (dsDNA) DNA 1: ATAATGGTTTCTTAGACGTCGTTTTAGAGCTGTGTTGTTTCG DNA 2: CGAAACAACACAGCTCTAAAACGACGTCTAAGAAACCATTAT	51000 ± 20000		
AUAAUGGUUUCUUAGACGUCGUUUUAGAGCUGUGUUGUUUCG (ssRNA) [ssRNA (TF-A)]	42 ± 15		
gRNA TF-A + target ssDNA MZ-949 (DNA:RNA, 5'-phosphate on guide) RNA: AUAAUGGUUUCUUAGACGUCGUUUUAGAGCUGUGUUGUUUCG DNA: CGAAACAACACAGCTCTAAAACGACGTCTAAGAAACCATTAT		20 ± 8	Kd [4]: 38 ± 13 pM; Kd [5]: 140 ± 57 pM; Kd [6]: 79 ± 7 pM; binding result [7]: no binding
gRNA TF-A + nsp-ssDNA MZ-589 (mixed, 5'-phosphate on guide) RNA: AUAAUGGUUUCUUAGACGUCGUUUUAGAGCUGUGUUGUUUCG DNA: GGAGATGGGAAGTCATTAGATGTAGAACTTGAATGGCAACGG		420 ± 231	
RNA/DNA heteroduplex (TF-A/MZ-949) (DNA:RNA) RNA: AUAAUGGUUUCUUAGACGUCGUUUUAGAGCUGUGUUGUUUCG DNA: CGAAACAACACAGCTCTAAAACGACGTCTAAGAAACCATTAT	4310 ± 370		
dsRNA (TF-A/MZ-1185) (dsRNA) RNA 1: AUAAUGGUUUCUUAGACGUCGUUUUAGAGCUGUGUUGUUUCG RNA 2: CGAAACAACACAGCUCUAAAACGACGUCUAAGAAACCAUUAU	73000 ± 29000		
gRNA TF-A + target ssRNA MZ-1185 (dsRNA, 5'-phosphate on guide) RNA 1: AUAAUGGUUUCUUAGACGUCGUUUUAGAGCUGUGUUGUUUCG RNA 2: CGAAACAACACAGCUCUAAAACGACGUCUAAGAAACCAUUAU		205 ± 58	Kd [6]: 567 ± 112 pM
